This note sets out measurements from article PMC6446838.

The target in experiment [1] is full-length KIF5B-GFP with C-terminal Strep-tag (human) (UniProt P33176).
Experiment [2] concerns the target K560-GFP with C-terminal Strep-tag, purified (human) (UniProt P33176).

Sequence of Alexa Fluor 647–labeled SNAP-tag-MAP7, full length (Q14244 whole entry): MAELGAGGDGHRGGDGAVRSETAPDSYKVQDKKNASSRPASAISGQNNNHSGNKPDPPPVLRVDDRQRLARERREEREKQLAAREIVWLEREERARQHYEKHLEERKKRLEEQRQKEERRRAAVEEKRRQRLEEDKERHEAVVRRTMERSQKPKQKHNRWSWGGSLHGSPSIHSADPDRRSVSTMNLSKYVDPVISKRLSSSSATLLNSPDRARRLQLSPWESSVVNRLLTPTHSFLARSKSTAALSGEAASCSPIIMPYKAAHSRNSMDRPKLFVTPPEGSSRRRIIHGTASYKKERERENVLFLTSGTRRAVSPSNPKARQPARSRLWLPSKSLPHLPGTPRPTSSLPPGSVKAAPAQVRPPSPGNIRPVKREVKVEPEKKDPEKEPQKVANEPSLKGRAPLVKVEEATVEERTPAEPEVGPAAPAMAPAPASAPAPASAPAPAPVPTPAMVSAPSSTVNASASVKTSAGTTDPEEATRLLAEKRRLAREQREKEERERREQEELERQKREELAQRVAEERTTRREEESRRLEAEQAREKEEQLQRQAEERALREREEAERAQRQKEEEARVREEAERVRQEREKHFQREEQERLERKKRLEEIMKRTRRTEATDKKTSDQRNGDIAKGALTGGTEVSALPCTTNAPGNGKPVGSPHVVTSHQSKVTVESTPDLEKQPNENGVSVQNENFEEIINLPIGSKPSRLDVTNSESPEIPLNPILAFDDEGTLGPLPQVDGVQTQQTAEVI
Sequence of full-length KIF5B-GFP with C-terminal Strep-tag (human) (P33176 whole entry): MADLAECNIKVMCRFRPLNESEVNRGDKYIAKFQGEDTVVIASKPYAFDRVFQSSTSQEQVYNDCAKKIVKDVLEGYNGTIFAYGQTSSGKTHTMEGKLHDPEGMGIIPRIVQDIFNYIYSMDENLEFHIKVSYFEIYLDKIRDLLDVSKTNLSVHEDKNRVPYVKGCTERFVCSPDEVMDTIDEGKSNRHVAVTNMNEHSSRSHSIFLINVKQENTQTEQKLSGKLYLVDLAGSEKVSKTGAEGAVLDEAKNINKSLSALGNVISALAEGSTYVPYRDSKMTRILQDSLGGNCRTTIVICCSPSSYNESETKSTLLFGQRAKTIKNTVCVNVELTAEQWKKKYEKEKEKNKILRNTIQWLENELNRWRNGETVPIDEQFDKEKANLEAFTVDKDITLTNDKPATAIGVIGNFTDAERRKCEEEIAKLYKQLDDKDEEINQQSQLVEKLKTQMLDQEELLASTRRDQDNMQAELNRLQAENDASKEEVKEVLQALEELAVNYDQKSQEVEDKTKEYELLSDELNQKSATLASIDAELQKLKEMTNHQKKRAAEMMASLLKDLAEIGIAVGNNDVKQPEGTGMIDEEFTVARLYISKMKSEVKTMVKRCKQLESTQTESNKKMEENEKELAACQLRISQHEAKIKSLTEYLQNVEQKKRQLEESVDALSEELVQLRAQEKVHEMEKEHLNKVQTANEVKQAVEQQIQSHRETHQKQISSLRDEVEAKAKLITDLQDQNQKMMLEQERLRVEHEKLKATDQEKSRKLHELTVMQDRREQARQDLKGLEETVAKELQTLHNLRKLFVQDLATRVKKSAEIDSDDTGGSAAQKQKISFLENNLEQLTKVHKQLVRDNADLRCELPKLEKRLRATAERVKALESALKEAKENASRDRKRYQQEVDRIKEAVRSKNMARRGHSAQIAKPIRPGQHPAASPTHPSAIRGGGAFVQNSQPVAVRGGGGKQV
Sequence of K560-GFP with C-terminal Strep-tag, purified (human) (P33176 1-560): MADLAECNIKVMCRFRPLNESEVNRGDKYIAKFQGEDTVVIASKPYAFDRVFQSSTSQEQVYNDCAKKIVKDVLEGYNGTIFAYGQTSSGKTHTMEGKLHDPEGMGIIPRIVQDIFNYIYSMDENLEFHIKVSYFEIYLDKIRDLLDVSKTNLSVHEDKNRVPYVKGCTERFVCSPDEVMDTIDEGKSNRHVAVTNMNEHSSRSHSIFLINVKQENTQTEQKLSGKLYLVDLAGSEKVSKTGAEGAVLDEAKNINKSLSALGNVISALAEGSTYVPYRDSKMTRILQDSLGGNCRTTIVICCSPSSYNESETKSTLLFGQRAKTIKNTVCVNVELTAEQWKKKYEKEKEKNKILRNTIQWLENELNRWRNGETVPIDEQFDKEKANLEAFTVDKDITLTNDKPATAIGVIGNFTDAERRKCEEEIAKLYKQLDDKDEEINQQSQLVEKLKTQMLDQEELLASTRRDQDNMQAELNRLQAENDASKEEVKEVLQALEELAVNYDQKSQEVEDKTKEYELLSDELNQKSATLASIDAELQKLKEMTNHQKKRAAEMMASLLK

In experiment [1], “Alexa Fluor 647–labeled SNAP-tag-MAP7, full length (from UniProt Q14244 1-749) (natural protein)” yielded an events of full-length KIF5B-GFP on dynamic MTs in vitro (short binding events and landing followed by processive movement), with MAP against kinesin alone above 60 fold; a run length of full-length KIF5B-GFP on dynamic MTs in vitro, with MAP against kinesin alone of 1.6 fold. Also, in experiment [2], the landing frequency of K560-GFP on MAP-decorated dynamic MTs in vitro, increasing MAP concentrations, against K560 alone was below 23.6 fold and the processivity (run length) of K560-GFP on dynamic MTs in vitro amounted to 2 fold.
